Source: patent US20260176343A1 (UCL BUSINESS, published 2026)
Residue numbers refer to the chain shown, from its start.

B1: AR_TCE-1 (bispecific antibody)
chain: QVQLVESGGGVVQPGRSLRLSCAASGFIFSEHNMAWVRQAPGKGLEWVATISDDGRNTYYRDSMRGRFTISRDNSKNTLYLQMNSLRAEDTAVYYCTSHRYNLFDSWGQGTMVTVSSGGGGSGGGGSGGGGSDIQMTQSPSSLSASVGDRVTITCKASQNIDRYLNWYQQKPGKAPKRLIYNTNKLQTGVPSRFSGSGSGTEFTLTISSLQPEDFATYYCLQYNSLPLTFGQGTKLEIKSGGGGSIEPDSESQGGGGSQVQLVQSGAEVKKPGSSVKVSCKASGYTFTRYTMHWVRQAPGQGLEWMGYINPSRGYTNYNQKFKDRVTITADKSTSTAYMELSSLRSEDTAVYYCARYYDDHYCLDYWGQGTMVTVSSVEGGSGGSGGSGGSGGVDDIQMTQSPSSLSASVGDRVTITCSASSSVSYMNWYQQKPGKAPKRLIYDTSKLASGVPSRFSGSGSGTEFTLTISSLQPEDFATYYCQQWSSNPFTFGQGTKVEIKHHHHHH
B2: AR_TCE-3 (bispecific antibody)
chain: B1 chain with E251L, S252E, Q253E
B3: NVG-111 (bispecific antibody)
chain: QVQLVESGGGVVQPGRSLRLSCAASGFIFSEHNMAWVRQAPGKGLEWVATISDDGRNTYYRDSMRGRFTISRDNSKNTLYLQMNSLRAEDTAVYYCTSHRYNLFDSWGQGTMVTVSSGGGGSGGGGSGGGGSDIQMTQSPSSLSASVGDRVTITCKASQNIDRYLNWYQQKPGKAPKRLIYNTNKLQTGVPSRFSGSGSGTEFTLTISSLQPEDFATYYCLQYNSLPLTFGQGTKLEIKSGSGGGGSQVQLVQSGAEVKKPGSSVKVSCKASGYTFTRYTMHWVRQAPGQGLEWMGYINPSRGYTNYNQKFKDRVTITADKSTSTAYMELSSLRSEDTAVYYCARYYDDHYCLDYWGQGTMVTVSSVEGGSGGSGGSGGSGGVDDIQMTQSPSSLSASVGDRVTITCSASSSVSYMNWYQQKPGKAPKRLIYDTSKLASGVPSRFSGSGSGTEFTLTISSLQPEDFATYYCQQWSSNPFTFGQGTKVEIKHHHHHH

target: ROR1 on Jeko-1 cells (UniProt Q01973 30-937, limits assumed); test: cell-based or functional assay

Binder | maximum target cell death, long-term (120 h) killing assay, 1 µg/mL, 1:10 effector to target ratio [%]
B1 | 58.7
B2 | 55.7
B3 | 60.5
